Sequences and labels used below:
T1: Cynomolgus CD3εδ Fc heterodimer (Cy CD3ε Fc / CD3δ Fc-HIS) (cynomolgus, UniProt Q95LI8 22-100)
T1 chain 1: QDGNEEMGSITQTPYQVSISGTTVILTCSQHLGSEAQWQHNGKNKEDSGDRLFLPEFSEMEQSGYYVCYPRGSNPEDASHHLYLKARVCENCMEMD
T1 chain 2: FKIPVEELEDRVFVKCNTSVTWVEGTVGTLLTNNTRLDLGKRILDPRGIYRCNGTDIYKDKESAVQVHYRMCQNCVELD

B1: SAD10319_P02_B06 (ADI-57321) (antibody, V domains shown)
VH: QVQLVQSGAEVKKPGASVKVSCKASGYTFTSYTMHWVRQAPGQRPEWMGSINAGTGFTDYSQKFQGRVTITRDTSASTAYMELSSLRSEDTAVYYCARDHYGHYFYDVWGQGTLVTVSS
VL: DIVMTQSPDSLAVSLGERATINCKSSQSLLNARTGKNYLAWYQQKPGQPPKLLIYWASTRESGVPDRFSGSGSGTDFTLTISSLQAEDVAVYYCKQSYSRRTFGGGTKVEIK
notes: IgG; also called Ab9
B2: SAD10319_P03_G08 (ADI-48638) (antibody, V domains shown)
VH: QVQLVQSGAEVKKPGASVKVSCKASGYTFSSYDMHWVRQAPGQRLEWMGWIDAGTGFTKYSQKFQGRVTITRDTSASTAYMELSSLRSEDTAVYYCARDAYGHYFYDHWGQGTLVTVSS
VL: DIVMTQSPDSLAVSLGERATINCKSSQSLLNARTGKNYLAWYQQKPGQPPKLLIYWASTRESGVPDRFSGSGSGTDFTLTISSLQAEDVAVYYCKQSYSRRTFGGGTKVEIK
notes: IgG; also called Ab22
B3: SAD10319_P02_G06 (ADI-48632) (antibody, V domains shown)
VH: QVQLVQSGAEVKKPGASVKVSCKASGYTFTSYAMHWVRQAPGQRLEWMGWINPDTGATVYSQKFQGRVTITRDTSASTAYMELSSLRSEDTAVYYCARDAYHHYFYDVWGQGTLVTVSS
VL: DIVMTQSPDSLAVSLGERATINCKSSQSLLNARTGKNYLAWYQQKPGQPPKLLIYWASTRESGVPDRFSGSGSGTDFTLTISSLQAEDVAVYYCKQSYSRRTFGGGTKVEIK
notes: IgG; also called Ab15
B4: SAD10319_P04_D11 (ADI-57337) (antibody, V domains shown)
VH: QVQLVQSGAEVKKPGASVKVSCKASGYTFNSYRMHWVRQAPGQRLEWMGSIDAGTGNTKYSQKFQGRVTITRDTSASTAYMELSSLRSEDTAVYYCARDAYGRYFYDHWGQGTLVTVSS
VL: DIVMTQSPDSLAVSLGERATINCKSSQSLLNARTGKNYLAWYQQKPGQPPKLLIYWASTRESGVPDRFSGSGSGTDFTLTISSLQAEDVAVYYCKQSYSRRTFGGGTKVEIK
notes: IgG; also called Ab35
B5: SAD10319_P03_H07 (ADI-57326) (antibody, V domains shown)
VH: QVQLVQSGAEVKKPGASVKVSCKASGYTFNSYDMHWVRQAPGQRLEWMGWINPYTGETKYSQKFQGRVTITRDTSASTAYMELSSLRSEDTAVYYCARDHYGHYFYDVWGQGTLVTVSS
VL: DIVMTQSPDSLAVSLGERATINCKSSQSLLNARTGKNYLAWYQQKPGQPPKLLIYWASTRESGVPDRFSGSGSGTDFTLTISSLQAEDVAVYYCKQSYSRRTFGGGTKVEIK
notes: IgG; also called Ab19
B6: SAD10319_P03_D08 (ADI-57327) (antibody, V domains shown)
VH: QVQLVQSGAEVKKPGASVKVSCKASGYTFYSYEMHWVRQAPGQRLDWMGWINPQTGATKYSQKFQGRVTITRDTSASTAYMELSSLRSEDTAVYYCARDAYHHYFYDVWGQGTLVTVSS
VL: DIVMTQSPDSLAVSLGERATINCKSSQSLLNARTGKNYLAWYQQKPGQPPKLLIYWASTRESGVPDRFSGSGSGTDFTLTISSLQAEDVAVYYCKQSYSRRTFGGGTKVEIK
notes: IgG; also called Ab20
B7: SAD10319_P04_C12 (ADI-57341) (antibody, V domains shown)
VH: QVQLVQSGAEVKKPGASVKVSCKASGYTFTAYDMHWVRQAPGQRLERMGWIDPITGNTKYSQKFQGRVTITRDTSASTAYMELSSLRSEDTAVYYCAHDAYGHYFYDVWGQGTLVTVSS
VL: DIVMTQSPDSLAVSLGERATINCKSSQSLLNARTGKNYLAWYQQKPGQPPKLLIYWASTRESGVPDRFSGSGSGTDFTLTISSLQAEDVAVYYCKQSYSRRTFGGGTKVEIK
notes: IgG; also called Ab41
B8: SAD10319_P04_A10 (ADI-57331) (antibody, V domains shown)
VH: QVQLVQSGAEVKKPGASVKVSCKASGYTFTSDAMHWVRQAPGQRLAWMGYINAGTGTTKYSQKFQGRVTITRDTSASTAYMELSSLRSEDTAVYYCAHDAYGHYFYDVWGQGTLVTVSS
VL: DIVMTQSPDSLAVSLGERATINCKSSQSLLNARTGKNYLAWYQQKPGQPPKLLIYWASTRESGVPDRFSGSGSGTDFTLTISSLQAEDVAVYYCKQSYSRRTFGGGTKVEIK
notes: IgG; also called Ab29
B9: SAD10319_P04_F11 (ADI-57339) (antibody, V domains shown)
VH: QVQLVQSGAEVKKPGASVKVSCKASGYTFTDYNMHWVRQAPGQRLQWMGWINPYTGYTKYSQKFQGRVTITRDTSASTAYMELSSLRSEDTAVYYCARDHYGHYFYDVWGQGTLVTVSS
VL: DIVMTQSPDSLAVSLGERATINCKSSQSLLNARTGKNYLAWYQQKPGQPPKLLIYWASTRESGVPDRFSGSGSGTDFTLTISSLQAEDVAVYYCKQSYSRRTFGGGTKVEIK
notes: IgG; also called Ab38
B10: SAD10319_P04_C11 (ADI-57336) (antibody, V domains shown)
VH: QVQLVQSGAEVKKPGASVKVSCKASGYTFHSYEMHWVRQAPGQRLEWMGWINPSTGSTKYSQKFQGRVTITRDTSASTAYMELSSLRSEDTAVYYCARDAYGRYFYDHWGQGTLVTVSS
VL: DIVMTQSPDSLAVSLGERATINCKSSQSLLNARTGKNYLAWYQQKPGQPPKLLIYWASTRESGVPDRFSGSGSGTDFTLTISSLQAEDVAVYYCKQSYSRRTFGGGTKVEIK
notes: IgG; also called Ab34
B11: SAD10319_P04_B11 (ADI-57335) (antibody, V domains shown)
VH: QVQLVQSGAEVKKPGASVKVSCKASGYTFGSYDMHWVRQAPGQRLEWMGWIDAGTGATKYSQKFQGRVTITRDTSASTAYMELSSLRSEDTAVYYCARDAHGHYFYDVWGQGTLVTVSS
VL: DIVMTQSPDSLAVSLGERATINCKSSQSLLNARTGKNYLAWYQQKPGQPPKLLIYWASTRESGVPDRFSGSGSGTDFTLTISSLQAEDVAVYYCKQSYSRRTFGGGTKVEIK
notes: IgG; also called Ab33
B12: SAD10319_P03_H08 (ADI-57328) (antibody, V domains shown)
VH: QVQLVQSGAEVKKPGASVKVSCKASGYTFKSYDMHWVRQAPGQRPEWMGWINAGTGNTVYSQKFQGRVTITRDTSASTAYMELSSLRSEDTAVYYCARDAYHRYFYDVWGQGTLVTVSS
VL: DIVMTQSPDSLAVSLGERATINCKSSQSLLNARTGKNYLAWYQQKPGQPPKLLIYWASTRESGVPDRFSGSGSGTDFTLTISSLQAEDVAVYYCKQSYSRRTFGGGTKVEIK
notes: IgG; also called Ab23
B13: SAD10319_P03_G09 (ADI-57300) (antibody, V domains shown)
VH: QVQLVQSGAEVKKPGASVKVSCKASGYTFTSYDMHWVRQAPGQRLEWMGWIDPHTGATKYSQKFQGRVTITRDTSASTAYMELSSLRSEDTAVYYCARDAYGRYFYDHWGQGTLVTVSS
VL: DIVMTQSPDSLAVSLGERATINCKSSQSLLNARTGKNYLAWYQQKPGQPPKLLIYWASTRESGVPDRFSGSGSGTDFTLTISSLQAEDVAVYYCKQSYSRRTFGGGTKVEIK
notes: IgG; ADI-57300 is also printed for Ab234; also called Ab28
B14: SAD10319_P03_G07 (ADI-57325) (antibody, V domains shown)
VH: QVQLVQSGAEVKKPGASVKVSCKASGYTFDSYLMHWVRQAPGQRLEWMGWIDAGTGATNYSQKFQGRVTITRDTSASTAYMELSSLRSEDTAVYYCARDAHGHYFYDVWGQGTLVTVSS
VL: DIVMTQSPDSLAVSLGERATINCKSSQSLLNARTGKNYLAWYQQKPGQPPKLLIYWASTRESGVPDRFSGSGSGTDFTLTISSLQAEDVAVYYCKQSYSRRTFGGGTKVEIK
notes: IgG; also called Ab18
B15: SAD10319_P04_E11 (ADI-57338) (antibody, V domains shown)
VH: QVQLVQSGAEVKKPGASVKVSCKASGYTFTDYNMHWVRQAPGQRLEWMGWINPYTGYTKYSQKFQGRVTITRDTSASTAYMELSSLRSEDTAVYYCARDHYGHYFYDVWGQGTLVTVSS
VL: DIVMTQSPDSLAVSLGERATINCKSSQSLLNARTGKNYLAWYQQKPGQPPKLLIYWASTRESGVPDRFSGSGSGTDFTLTISSLQAEDVAVYYCKQSYSRRTFGGGTKVEIK
notes: IgG; also called Ab37
B16: SAD10319_P02_D06 (ADI-48631) (antibody, V domains shown)
VH: QVQLVQSGAEVKKPGASVKVSCKASGYTFTDYAMHWVRQAPGQRLEWMGWINAGTGATIYSQKFQGRVTITRDTSASTAYMELSSLRSEDTAVYYCARDAYHHYFYDVWGQGTLVTVSS
VL: DIVMTQSPDSLAVSLGERATINCKSSQSLLNARTGKNYLAWYQQKPGQPPKLLIYWASTRESGVPDRFSGSGSGTDFTLTISSLQAEDVAVYYCKQSYSRRTFGGGTKVEIK
notes: IgG; also called Ab11
B17: SAD10319_P04_G11 (ADI-48641) (antibody, V domains shown)
VH: QVQLVQSGAEVKKPGASVKVYCKASGYTFTTYEMHWVRQAPGQRLEWMGSINAGDANTKYSQKFQGRVTITRDTSASTAYMELSSLRSEDTAVYYCARDAYHHYFYDVWGQGTLVTVSS
VL: DIVMTQSPDSLAVSLGERATINCKSSQSLLNARTGKNYLAWYQQKPGQPPKLLIYWASTRESGVPDRFSGSGSGTDFTLTISSLQAEDVAVYYCKQSYSRRTFGGGTKVEIK
notes: IgG; also called Ab39
B18: SAD10319_P03_E08 (ADI-48637) (antibody, V domains shown)
VH: QVQLVQSGAEVKKPGASVKVSCKASGYTFNDYAMHWVRQAPGQRLEWMGYINGTGATVYSQKFQGRVTITRDTSASTAYMELSSLRSEDTAVYYCARDAYHHYFYDVWSQGTLVTVSS
VL: DIVMTQSPDSLAVSLGERATINCKSSQSLLNARTGKNYLAWYQQKPGQPPKLLIYWASTRESGVPDRFSGSGSGTDFTLTISSLQAEDVAVYYCKQSYSRRTFGGGTKVEIK
notes: IgG; also called Ab21
B19: SAD10319_P03_F09 (ADI-57329) (antibody, V domains shown)
VH: QVQLVQSGAEVKKPGASVKVSCKASGYTFPSYPMHWVRQAPGQRLDWMGWINPDTGATVYSQKFQGRVTITRDTSASTAYMELSSLRSEDTAVYYCARDAYHHYFYDVWGQGTLVTVSS
VL: DIVMTQSPDSLAVSLGERATINCKSSQSPLNARTGKNYLAWYQQKPGQPPKLLIYWASTRESGVPDRFSGSGSGTDFTLTISSLQAEDVAVYYCKQSYSRRTFGGGTKVEIK
notes: IgG; also called Ab27
B20: SAD10319_P04_C10 (ADI-57333) (antibody, V domains shown)
VH: QVQLVQSGAEVKKPGASVKVSCKASGYTFTDYSMHWVRQAPGQRLEWMGSINAGTGITKYSQKFQGRVTITRDTSASTAYMELSSLRSEDTAVYYCARDAHGRYFYDVWGQGTLVTVSS
VL: DIVMTQSPDSLAVSLGERATINCKSSQSLLNARTGKNYLAWYQQKPGQPPKLLIYWASTRESGVPDRFSGSGSGTDFTLTISSLQAEDVAVYYCKQSYSRRTFGGGTKVEIK
notes: IgG; also called Ab31

Our source for the koff values is patent publication US20220380463A1 (Adimab, published 2022).

The assay addresses T1, Cynomolgus CD3εδ Fc heterodimer (Cy …). As to the kind of experiment: BLI (Octet), IgG on AHC sensor, pH 6.0. Background: BLI is a label-free optical method that tracks binding on a fibre tip over time.
The koff is a measure of how fast the partners let go of each other. In the case of B1, the off-rate (koff) was determined as 0.00531 s⁻¹.

In the case of B2, the off-rate (koff) turned out to be 0.0168 s⁻¹.

As to B3, the koff turned out to be 0.0242 s⁻¹.

In turn, B4 displayed an off-rate constant (koff) of 0.00339 s⁻¹.

As to B5, the koff turned out to be 0.0201 s⁻¹.

The molecule B6 came in with a koff of 0.02 s⁻¹.

B7 showed an off-rate (koff) of 0.0196 s⁻¹.

Turning to B8, the koff is 0.0262 s⁻¹.

For the molecule B9, the off-rate (koff) came to 0.00202 s⁻¹.

The molecule B10 gave an off-rate (koff) of 0.00317 s⁻¹.

Consider B11, for which the koff amounted to 0.00273 s⁻¹.

B12: the koff came out at 0.00348 s⁻¹.

In the case of B13, the off-rate (koff) was 0.0219 s⁻¹.

Molecule B14 gave a dissociation rate constant (koff) of 0.0187 s⁻¹.

B15 displayed an off-rate constant (koff) of 0.0239 s⁻¹.

On to B16, for which the koff stood at 0.0212 s⁻¹.

Turning to B17, the off-rate constant (koff) was found to be 0.00317 s⁻¹.

In turn, B18 yielded a koff of 0.0197 s⁻¹.

For the molecule B19, the koff was 0.0199 s⁻¹.

B20 came in with an off-rate (koff) of 0.00124 s⁻¹.
